B1: M0418 scFv-Fcε fusion protein [human] / Bet v 1.0101 peptide I56 to D69 [modified: biotin at the N-terminus, before the additional glycine; biotin at the N-terminus, before the additional glycine] [birch] (parent complex)
chain 1: QVQLVQSGAEVKKPGESLKISCKGSEYSFPNYWIAWVRQMPGKGLEWMGMIYPGDSDTRYSPSFQGQVNISADKSSRTAFLEWSSLKASDSATYFCARLGGQLWNSYYYYYYMDVWGKGTTVTVSSGGGGSGGGGSGGGGSSYELTQPPSASGTPGQRVTISCSGSSSNIGGNTVNWYQQVPGTAPRLLIYKNNQRPSGVPDRFSGSKSGTSASLAISGLRSEDEADYYCEAWDGGLRGGVFGGGTKLTVLGDYKDDDDKAAA
chain 2: GISFPEGFPFKYVKDG

In the test the parent is B1. The experiment in a line: ELISA; parent: 3.4; read off a plot. A general note: ELISA stands for enzyme-linked immunosorbent assay.
chain 2 S3T: the response is ~3.4 Absorbance (450 nm). Regarding chain 2 S3N, the response was ~3.4 Absorbance (450 nm). For chain 2 F8S, the response is ~0.22 Absorbance (450 nm).

As for chain 2 F8L, the response is ~0.2 Absorbance (450 nm). On to chain 2 F8I, for which the response was ~2.8 Absorbance (450 nm). As for chain 2 E6K, the response was ~3.4 Absorbance (450 nm). Take chain 2 K11R: the response was ~0.22 Absorbance (450 nm).

Take chain 2 K11E: the response is ~2 Absorbance (450 nm).

Consider chain 2 P5S, for which the response is ~0.17 Absorbance (450 nm).

For chain 2 F10V, the response was ~3.4 Absorbance (450 nm). In the case of chain 2 D15E, the response is ~3.4 Absorbance (450 nm).

The record behind these values is publication PMC4215112 (2014).
